From PMC11488477, “TDP-43 Amyloid Fibril Formation via Phase Separation-Related and -Unrelated Pathways” (ACS Chemical Neuroscience, 2024) come the findings set out here.

This data set concerns the molecule itself. The data set can be described thus: thioflavin T fluorescence + negative-stain TEM; protein alone in buffer with ThT, 20 uM (higher at pH 4 and 5), pH 4-7, 0-300 mM NaCl, 1% DMSO, 96-well plate, 30 °C; long-period assays (Figure 5) incubated without shaking; self-assembly into amyloid fibrils.

B1: C-terminal domain of TDP-43 (residues 266-414), wild type (domain or fragment, UniProt Q13148 266-414, looked up)
chain: SNRQLERSGRFGGNPGGFGNQGGFGNSRGGGAGLGNNQGSNMGGGMNFGAFSINPAMMAAAQAALQSSWGMMGMLASQQNQSGPSGNNQNQGNMQREPNQAFGSGNNSYSGSNSGAAIGWGSASNAGSGSGFNGGFGSSMDSKSSGWGM
notes: TDP-43, C-terminal domain (intrinsically disordered region), residues 266-414; UniProt entry Q13148; also called TDP-43's IDR; wild-type TDP-43
With B1, the binding result is reported as “binds”.
